The data set deals with Saccharomyces cerevisiae. In words: protein stability index of tFT-peptide fusion (C-terminal peptide) (PSI (0-1 scale)); higher = more stable (slower turnover). Conditions: temperature: 30 C. As to the method: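 MPS profiling in S. cerevisiae of the yeast C-terminome library: the last 12 aa of each annotated ORF are fused to the C-terminus of a sfGFP-mCherry timer, after a GGGS linker. Cells are FACS-sorted into 8 mCherry/sfGFP bins and deep-sequenced. PSI runs from 0 (unstable) to 1 (stable); wild type and das1Δ backgrounds, two technical replicates each.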

[1] abbreviates: genetic background: das1 deletion.

This passage reports protein stability index results from the supplement of paper PMC10724198.

± gives the standard deviation of the averaged measurements.

For the sequence GAMSEGKTGQLN [YLR036C C-terminal 12 aa], the protein stability index runs as follows: under setting [1], 0.699 ± 0.02; (genetic background: wild type) 0.6988 ± 0.0014.
The matching figures for GARPPKNEARII [YBL036C C-terminal 12 aa]: 0.694 ± 0.011 and 0.677 ± 0.038.
Regarding GCDLDISYAKRL [HRB1 C-terminal 12 aa], the protein stability index is, setting by setting: under setting [1], 0.7155 ± 0.0028; (genetic background: wild type) 0.695 ± 0.035.
The like results for GCGCNCPEMFDA [MTC5 C-terminal 12 aa] were, in that order, 0.6906 ± 0.0026 and 0.695 ± 0.029.
The matching figures for GDEEDPNEEAAF [RPC31 C-terminal 12 aa]: 0.692 ± 0.01 and 0.673 ± 0.027.
Turning to GDSDNVVKRLRK [URB1 C-terminal 12 aa], the protein stability index is 0.686 ± 0.018 under setting [1] and 0.707 ± 0.016 (genetic background: wild type).
Take GECVLTKNNKFT [ATG21 C-terminal 12 aa]: the protein stability index amounted to 0.672 ± 0.034 under setting [1] and 0.652 ± 0.026 (genetic background: wild type).
The like results for GFIRGSNKFAEV [SMC3 C-terminal 12 aa] were, in that order, 0.6866 ± 0.0044 and 0.6658 ± 0.0058.
The like results for GFQTGSASKASA [RPL37A C-terminal 12 aa] were, in that order, 0.71864 ± 0.00033 and 0.712 ± 0.019.
With GIVYDFHKSDMY [LSM1 C-terminal 12 aa], the protein stability index by setting is: under setting [1], 0.683 ± 0.036; (genetic background: wild type) 0.696 ± 0.043.
The like results for GKDITDQPCIDL [SSP2 C-terminal 12 aa] were, in that order, 0.7054 ± 0.00083 and 0.725 ± 0.058.
The like results for GKTAADNIAKLY [OSM1 C-terminal 12 aa] were, in that order, 0.6764 ± 0.004 and 0.619 ± 0.02.
In the case of GLCLCCTLDMLF [YDL012C C-terminal 12 aa], the protein stability index reads like this: under setting [1], 0.676 ± 0.014; (genetic background: wild type) 0.6621 ± 0.0026.
The like results for GLLMAGKASEFQ [VMA16 C-terminal 12 aa] were, in that order, 0.694 ± 0.013 and 0.72 ± 0.035.
With GMLYALYIVLQD [PMP3 C-terminal 12 aa], the protein stability index is, setting by setting: under setting [1], 0.301 ± 0.0097; (genetic background: wild type) 0.32 ± 0.0081.
GNAIREIKTYKY [GLY1 C-terminal 12 aa]: the protein stability index reads like this: under setting [1], 0.687 ± 0.035; (genetic background: wild type) 0.658 ± 0.052.
The matching figures for GPSDDDEEDDKK [YGL242C C-terminal 12 aa]: 0.643 ± 0.043 and 0.675 ± 0.07.
The matching figures for GPTIPISATIRE [RCK2 C-terminal 12 aa]: 0.65756 ± 0.00065 and 0.735 ± 0.021.
The matching figures for GPYWKRVLDFWC [GNP1 C-terminal 12 aa]: 0.752 ± 0.012 and 0.739 ± 0.029.
On to GPYWKRVVAFWC [AGP1 C-terminal 12 aa], for which the protein stability index was determined as 0.734 ± 0.017 under setting [1] and 0.549 ± 0.011 (genetic background: wild type).
The matching figures for “GRNKIYILFNVL [YMR030W-A C-terminal 12 aa]”: 0.6466 ± 0.0047 and 0.116 ± 0.0082.
The like results for GRVDFQSTSKFT [AIM24 C-terminal 12 aa] were, in that order, 0.702 ± 0.036 and 0.7036 ± 0.0061.
The matching figures for GTAASEPTPITK [ATP15 C-terminal 12 aa]: 0.7295 ± 0.0065 and 0.681 ± 0.017.
As to GTKMEWFFDPLA [IPT1 C-terminal 12 aa], the protein stability index runs as follows: under setting [1], 0.732 ± 0.025; (genetic background: wild type) 0.701 ± 0.0081.
Turning to GTMKVDSWEPVD [ACH1 C-terminal 12 aa], the protein stability index came out at 0.7 ± 0.013 under setting [1] and 0.6829 ± 0.0049 (genetic background: wild type).
With GTVNYAGLHDEL [SED4 C-terminal 12 aa], the protein stability index was 0.687 ± 0.034 under setting [1] and 0.723 ± 0.044 (genetic background: wild type).
Consider GVRKEFYELKRD [PRE7 C-terminal 12 aa], for which the protein stability index runs as follows: under setting [1], 0.69519 ± 5.6e-05; (genetic background: wild type) 0.693 ± 0.054.
Regarding GYKDRFGNLNVM [ATP7 C-terminal 12 aa], the protein stability index runs as follows: under setting [1], 0.7037 ± 0.0041; (genetic background: wild type) 0.687 ± 0.02.
The like results for GYQRGLDEFNKY [MRX18 C-terminal 12 aa] were, in that order, 0.7148 ± 0.0013 and 0.681 ± 0.04.
The like results for HEKPHTVSLRHK [CPR4 C-terminal 12 aa] were, in that order, 0.717 ± 0.013 and 0.721 ± 0.035.
The matching figures for HENSKCFTHYLI [AFR1 C-terminal 12 aa]: 0.684 ± 0.035 and 0.6605 ± 0.0065.
Consider HERKRNKVLNTT [CMR3 C-terminal 12 aa], for which the protein stability index came out at 0.704 ± 0.021 under setting [1] and 0.661 ± 0.043 (genetic background: wild type).
The like results for HFYDRTNDLTNL [YNL144C C-terminal 12 aa] were, in that order, 0.736 ± 0.024 and 0.68 ± 0.039.
The matching figures for “HIFEKKIFHTNL [YOL097W-A C-terminal 12 aa]”: 0.706 ± 0.018 and 0.65 ± 0.027.
The like results for HLAQMKMEQLLK [APQ12 C-terminal 12 aa] were, in that order, 0.678 ± 0.015 and 0.67 ± 0.014.
As to “HLCWLRCACDGP [YLR154C-G C-terminal 12 aa]”, the protein stability index is, setting by setting: under setting [1], 0.716 ± 0.0083; (genetic background: wild type) 0.699 ± 0.022.
The like results for HLSMVCDLELQL [NGL2 C-terminal 12 aa] were, in that order, 0.738 ± 0.072 and 0.659 ± 0.045.
The matching figures for HNLESLVVAFNE [SPO16 C-terminal 12 aa]: 0.6872 ± 0.003 and 0.717 ± 0.064.
The like results for HPTSAEELVTMR [GLR1 C-terminal 12 aa] were, in that order, 0.7175 ± 0.007 and 0.693 ± 0.071.
Take HYPLNSIPFTVT [YMR326C C-terminal 12 aa]: the protein stability index is, setting by setting: under setting [1], 0.706 ± 0.019; (genetic background: wild type) 0.775 ± 0.087.
As to IADELDWLKFGI [GLN3 C-terminal 12 aa], the protein stability index came out at 0.906 ± 0.028 under setting [1] and 0.882 ± 0.019 (genetic background: wild type).
The like results for ICAWLLFFETIH [BST1 C-terminal 12 aa] were, in that order, 0.458 ± 0.018 and 0.521 ± 0.059.
The matching figures for IDIPVQVKNSFI [YNR068C C-terminal 12 aa]: 0.711 ± 0.017 and 0.706 ± 0.051.
The like results for IDLSKKLSFYNY [GMH1 C-terminal 12 aa] were, in that order, 0.685 ± 0.043 and 0.554 ± 0.0067.
Turning to IDNVIISGKDEY [CCT5 C-terminal 12 aa], the protein stability index reads like this: under setting [1], 0.7033 ± 0.0056; (genetic background: wild type) 0.6529 ± 0.0048.
The like results for IDSLIENLRFQI [DBF4 C-terminal 12 aa] were, in that order, 0.7414 ± 0.0037 and 0.678 ± 0.049.
Consider IEELLAGIRMSI [BIT61 C-terminal 12 aa], for which the protein stability index runs as follows: under setting [1], 0.719 ± 0.028; (genetic background: wild type) 0.706 ± 0.037.
The like results for IEHVKYDNIVSP [UBC12 C-terminal 12 aa] were, in that order, 0.6974 ± 0.0012 and 0.675 ± 0.011.
The matching figures for “IFMCIILANKHF [YFR052C-A C-terminal 12 aa]”: 0.342 ± 0.02 and 0.22 ± 0.009.
The matching figures for “IFQSAISKAIRG [YBR109W-A C-terminal 12 aa]”: 0.6726 ± 0.0032 and 0.682 ± 0.0053.
